Numbering of substitutions follows the chain as printed.
B1: C1046 (antibody, V domains shown)
VH: EVQLVQSGAEVKKPGESLKISCKGSGYSFTSYWIGWVRQMPGKGLEWMGIIYPGDSDTRYSPSFQGQVTISADKSISTAYLQWSSLKASDTAMYYCARMVTSGTYYYDNSGYSSSGPFDYWGQGTLVTVSS
VL: DIQLTQSPSSLSASVGDRVTITCRASQGISSALAWYQQKPGKAPKLLIYDASSLESGVPSRFSGSGSGTDFTLTISSLQPEDFATYYCQQFNNFGPGTKVDIK
B2: C1053 (antibody, V domains shown)
VH: EVQLLESGGGLVQPGGSLRLSCAASGFTFSSYAMNWVRQAPGKGLEWVSAISGSGGGTYYADSVKGRFTISRDNSKNTLYLQMDSLRAEDTAVYYCAKDVPIEQQLVPTFDYWGQGALVTVSS
VL: DIQMTQSPSSLSASVGDRVTITCRASQSISRYLNWYQQKPGKAPKLLIYGASSLQSGVPSRFSGSGSGTDFTLTISSLQPEDFATYWCQQSYSTLSITFGQGTRLEIK
B3: C1061 (antibody, V domains shown)
VH: EVQLVESGGGLVQPGGSLRLSCAASGFTFSRYDMHWVRQGTGKGLEWVSAIGTSGDTYYPDSVKGRFTISRENAKNSLYLQMNSLRAGDTAVYYCARGGLQTTTWLFDYWGQGTLVTVSS
VL: B2 VL with G50A, S67A, T85I, W87Y, T94N, L95P, S96P
B4: C1054 (antibody, V domains shown)
VH: EVQLLESGGGLVQPGGSLRLSCVVSGFTFSSYAMNWVRQAPGKGLEWVSVIGGSGDGRYYADSVKGRFTISRDNSKNTLYLQMNSLRGDDTAVYYCARDVPVEQQLVPTFDYWGQGTLVTVSS
VL: B2 VL with G50A, D70E, W87Y
B5: C1062 (antibody, V domains shown)
VH: B3 VH with R31N, G40T, S54A, D61G, I69M, Y109N
VL: B2 VL with S28T, G50A, W87Y, S93T, T94M, L95P, S96P
B6: C1063 (antibody, V domains shown)
VH: EVQLVQSGAEVKKPGESLKISCKGYGNSFNNYWIAWVRQMPVKGLEWMGVINPGDSDTRYSPSFQGQVTISVDKSISTAYLQWSSLKASDTAMYYCARTWSPAAVAFFDSWGQGTLVTVS
VL: NFMLTQPHSVSESPGKTVTISCTRSSDSIGSNYVQWYQQRPGSSPTIVIYEDSQRPSGVPHRFSGSFDSSSNSASLTISGLKTEDEADYYCQSWDSGNLVFGGGTKLTVL
B7: C1058 (antibody, V domains shown)
VH: EVQLVESGGGLVQPGGSLRLSCAASGIIVSSNYMNWVRQVPGKGLEWVSVLYSGGSTFYADSVRGRFTISRDNSKNTLFLQMNSLRPEDTAVYYCARDFREGAFDIWGQGTMVTV
VL: DIQLTQSPSFLSASVGDRVTITCRASQGISSYLAWYQQKPGKAPNLLIYAASTLQSGVPSRFSGSGSGTDFTLTISSLQPEDFATYYCQQLNSYSPLFGQGTRLEIK
B8: C1059 (antibody, V domains shown)
VH: EVQLVESGGGLVQPGGSLRLSCAASGVTVSYNYMHWVRQAPGKGLEWVSVFFPGGSIFYADSVKGRFSISRDNSHNTLYLQMNNLRPEDTAVYYCARDFREGAIDLWGQGTMVTVSS
VL: B7 VL with G16E, N45K, A50G, D70E, F83S, S95P
B9: C1049 (antibody, V domains shown)
VH: EVQLVQSGAEVKKPGESLKISCKSSGYSFISHWIGWVRQMPGKGLEWMGIIWPGDSDTRYSPSFQGQVTISVDKSITTVYLQWSSLKAADTAMYYCARRGSSWEVDYWGQGTLVTVSS
VL: not shown
B10: C1057 (antibody, V domains shown)
VH: QVQLVQSGAEVKKPGSSVKVSCKASGGTFTTYIISWVRQAPGQGLEWMGGISPMLGTANYAQKFQGGVTITADESTTTAYMEMSGLRSEDTAVYYCARAHMYCSDGSCYRQSGYFDSWGQGTLVTVSS
VL: QSALTQPRSVSGSPGQSVTITCTGTSSNVGGYKYVSWFQQHPGKAPKFLIYDVSERSSGVPDRFSGSKSGNTASLTISGLQAEDEADYYCCSYAGKYTVVFGGGTRLTV
B11: C1060 (antibody, V domains shown)
VH: EVQLVESGGDLVQPGGSLRLSCAASEIIVSRNYMNWVRQAPGKGLEWVSIIYSGGSTFYGDSVKGRFTISRDSSKNTLYLQMHGLRVEDTAIYYCARSYGDYYIDYWGQGTLVTVSS
VL: DIQMTQSPSSVSASVGDRVTITCRTSQSISTSLAWYQQKPGKAPKLLIYAASSLQRGVPSRFSGTGSGTDFTLTISSLQPEDFATYYCQQSSSSPPLFTFGPGTKVDIK
B12: C1034 (antibody, V domains shown)
VH: QLQLQESGPGLVKPSETLSLTCTVSGGSVSSNNHYWGWIRQPPGKGLEWIGSISSSGSTHHNPSLRSRVTISVDTSKNHFSLKLNSVTATDTAVYYCARVDSSGWYTGDVFDVWGQGTMVTVSS
VL: DIQMTQSPSSLSASVGDRVTITCRASQTINNYLNWYQQKPGKPPKLLIYAAFSLHSGVPSRFSGSRSGTDFTLTISSLQPEDFATYYCQHSYSTMCSFGQGTKLEIK
B13: C1038 (antibody, V domains shown)
VH: QVQLVQSGAEVKKPGASVKVSCKASGYTFTSYYMHWVRQAPGQGLEWMGIINPSGGSTRYAQKFQGRVTMTRDTSTSTVYMELSSLRSEDTAVYYCAREGVGGTSYFDYWGQGTLVTVSS
VL: SYELTQPPSVSVAPGKTARITCGGNNIGSKSVHWYQQKPGQAPVLVVYDDSDRPSGIPERFSGSNSGNTATLTISRVEAGDEADYYCQVWDSSSDPYVFGTGTKVTVL
B14: C1039 (antibody, V domains shown)
VH: QVQLVQSGAEVKKPGASVKVSCKASGYTFTSHYMHWVRQAPGQGLEWMGIINPRTRYAQMFQGRVSMNRDTSTSTVYMELSSLTSEDTAVYYCAREGLGATAYFDYWGQGTLVTVSS
VL: B13 VL with R19G, N25S, N26D, T106S
B15: C1040 (antibody, V domains shown)
VH: QVQLVESGGGVVQPGRSLRLSCAASGFSFINYNMHWVRQAPGKGLEWVAVIWYDGSNKYYADSVKGRFTISRDNSKNTLYLQMNSLRVEDTAVYYCARDPAITEAEIDYWGQGTLVTVSS
VL: DVVMTQSPLSLPVTLGQAASISCRSSQSLVHSDGNTYLNWFQQRPGQSPRRLIYRVSNRDSGVPDRFSASGSGTDFTLKISRVEAEDVGVYYCMQGTHWPWTFGQGTKVEIK
B16: C1047 (antibody, V domains shown)
VH: EVQLVQSGAEVKKPGESLKISCKGSGYSFISYWIVWVRQMPGKGLEWIGIIYPGDSDTIYSPSFQGQVTLSADKSISTAYLQWSSLKASDTAIYYCAKMVTSGTSYYETRGYASSGPFDNWGQGTLVTVSS
VL: DIQLTQSPSSLSASVGDRVTITCRASQGISSALAWYQQKPGKAPKLLIYDASSLESGVPSRFSGSGSGTDFTLTISSLQPEDFATYYCQQSDNFGPGTKVDI
B17: C1044 (antibody, V domains shown)
VH: QVQLQESGPGLVKPSQTLSLTCTVSGGSISSGNYYLTWIRQPAGKGLEWIGHIYTSGSTNYNPSLKSRVTISVDTSMNQFSLKLSSVTAADTAVYYCARDIPPTWYFDLWGRGTLVTVSS
VL: SYELTQPPSVSVAPGKTARITCGGNNIGSKNVHWYQQKPGQAPVLVVYDDSDRPSGIPERFSGSNSGNTATLTISRVEAGDEAGYYCQVWDSTSDHLFWVFGGGTKLTVL
B18: C1045 (antibody, V domains shown)
VH: B17 VH with G27D, L36W, T37S, T59P, N62K, V73L, M77K, S85T, V94M, P103S
VL: B17 VL with T21P, N25T, N26D, V46A, N68S, G84D, T93S, S94G, H96R, F98S
B19: C1055 (antibody, V domains shown)
VH: QVQLVESGGGVVQPGRSLRLSCAASGFTFSTYGMNWVRQAPGKGLEWVALILYDGSDKYYADSVKSRFTISRDNSRNTLYLQMTSLRAEDTAVYYCAKALSSTYYYDASGPDAFDIWGQGTMVTVSS
VL: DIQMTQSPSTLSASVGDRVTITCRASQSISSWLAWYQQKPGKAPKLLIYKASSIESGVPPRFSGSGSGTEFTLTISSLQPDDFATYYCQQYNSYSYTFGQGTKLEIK
B20: C1043 (antibody, V domains shown)
VH: EVQLVESGGGLVQPGRSLRLSCAASGFIFDNYAMHWVRQAPGKGLEWVSGISWNSDSIGYADSVKGRFTISRDNAKNSLYLQMSSLRAEDTALYYCAKDLLGNYYYYTLDVWGQGTTVTVSS
VL: QSALTQPASVSGSPGQSITISCTGTSSDIGGNNYVSWYQQHPGKAPRLMIFDVSYRPSGVSNRFSGSKSGNTASLTISGLQAEDEADYYCISYTTSSTLGVFGGGTKLTVL
B21: C1048 (antibody, V domains shown)
VH: EVQLVQSGAEVKKPGESLKISCKVSGYSFISHWIGWVRQMPGKGLEWMGIIYPGDSDTRYSPSFQGQVTISADKSISTAYLQWSSLKASDTAMYYCARRGASWELDYWGQGTLVTV
VL: QSVLTQPPSASGTPGQRVTISCSGSSSNIGSNPVSWYQQLPGPAPQLLIYGNDQRPSGVPDRFSGSKSGTSASLAISGLQSEDEADYYCAAWDDSLNGYVFGTGTKVTVL
B22: C1052 (antibody, V domains shown)
VH: QVQLVQSGAEVKKPGASVKVSCKVSGYTLSELSMHWVRQAPGEGLEWLGGFDPEDGETINAQKFQGRVTMTEDRSTDTAYMELSSLRSEDTAVYYCATRGRYCSSGNCYYHHWGQGTLVTVSS
VL: DIQMTQSPSTLSASVGDRVIITCRASQNIHNWLAWYQQKPGKAPKLLIYKASSLESGVPSRFSGSGSGTEFTLTISSLQPDDFATYFCQQYHSYSWTFGQGTKVEIK
B23: C1035 (antibody, V domains shown)
VH: EVQLVESGGGLIQPGGSLRLSCAASGLTVSRNYMNWVRQAPGKGLEWVSVMYSGGSTFYADSVKGRFTISRDNSKNTLYLQMNSLRAEDTAVYYCARESYGMDVWGQGTTVTVSS
VL: EIVLTQSPGTLSLSPGERATLSCRASQSFSSTYLAWYQQKPGQAPRLLIYGASSRATGIPDRFSGSGSGTDFTLTISRLEPEDFAVYYCQQYVTSPWTFGQGTKVEIK
B24: C1036 (antibody, V domains shown)
VH: B23 VH with T28I, A40V, S53A, N73D, A87P
VL: B23 VL with F29I
B25: C1050 (antibody, V domains shown)
VH: EVQLVESGGGLVQPGRSLRLSCAASGFTFDDYGMHWVRQAPGKGLEWVSGISWNGDSIGYADSVKGRFTISRDNAKTSLYLQMNRLRAEDTALYYCAKAASRSTRIGGAFDIWGQGTMVTVSS
VL: QSALTQPASVSGSPGQSITISCTGTSSDVGGYNLVSWYQQHPGKAPKLMIYEGSKRPSGVSNRFSGSKSGNTASLTISGLQAEDEADYYCCSYAYSFTNVFGTGTKVTV
B26: C1051 (antibody, V domains shown)
VH: B25 VH with A23V, M34L, G55S, T69A, K76R
VL: B25 VL with H41Y, G53D, N62H, Y95F

Target: T1, SARS-COV-2 RBD (SARS-COV-2, UniProt P0DTC2 319-539)
T1 construct: also called WT RBD
Experiment: ELISA, RBD coated on plate

| Binder | EC50 [ng/mL] |
| --- | --- |
| B1 | 3.8 |
| B2 | 4.13 |
| B3 | 2.26 |
| B4 | 1.64 |
| B5 | 2.61 |
| B6 | 3.04 |
| B7 | 2.13 |
| B8 | 1.69 |
| B9 | 2.81 |
| B10 | 2.12 |
| B11 | 2.67 |
| B12 | 2.77 |
| B13 | 2.46 |
| B14 | 2.61 |
| B15 | 2.08 |
| B16 | 2.46 |
| B17 | 3.22 |
| B18 | 2.57 |
| B19 | 2.71 |
| B20 | 2.77 |
| B21 | 2.41 |
| B22 | 2.64 |
| B23 | 2.05 |
| B24 | 1.02 |
| B25 | 2.78 |
| B26 | 1.4 |

Source: US20240218057A1 (ROCKEFELLER UNIVERSITY, published 2024)
